This data set concerns the molecule itself. The data set is described as follows: cryo-EM structure; single-particle cryo-EM with Volta phase plate, frozen-hydrated hPrx3 in thick ice; two data sets (7.3 Å and 4.4 Å reconstructions); D6 symmetry imposed in 3D classification of the first data set.

B1: human peroxiredoxin-3 (natural protein, UniProt P30048 62-256, looked up)
chain: APAVTQHAPYFKGTAVVNGEFKDLSLDDFKGKYLVLFFYPLDFTFVCPTEIVAFSDKANEFHDVNCEVVAVSVDSHFSHLAWINTPRKNGGLGHMNIALLSDLTKQISRDYGVLLEGSGLALRGLFIIDPNGVIKHLSVNDLPVGRSVEETLRLVKAFQYVETHGEVCPANWTPDSPTIKPSPAASKEYFQKVNQ
notes: peroxiredoxin-3 (Prx3), human mitochondrial isoform; also called hPrx3; Prx3; source: Rosetta (DE3) cells (Novagen), purified (HisTrap, Superdex 200 gel filtration, TEV cleavage of the His-tag); copies: 12
Regarding B1, the stoichiometry N (usually a count of units in the complex or per binding partner) amounted to 12.
